Data taken from article doi:10.1101/2022.02.11.480038, “Phosphorylation by casein kinase 2 ensures ER-phagy receptor TEX264 binding to ATG8 proteins” (bioRxiv, 2022).
Where no end group is shown, it is not given here. [ ]: non-standard residue; d: D form. pS = N[C@@H](COP(=O)(O)O)C(=O)O

Tests used:
[1] = molecular target: T1, Human GABARAP (residues 1-116) (human, UniProt O95166 1-116); assay: ITC; Microcal iTC200, 25°C; TEX264 peptides 0.5 mM in the syringe, LC3B or GABARAP in the cell at 10-times lower concentration; single-site binding model; conditions: both partners purified
T1 construct: GABARAP, human, residues 1-116; source: prepared as described previously (Mochida et al., 2020), purified

[2] = molecular target: Human LC3B (residues 1-120) (human, UniProt Q9GZQ8 1-120); assay: as above; conditions: both partners purified

T1 sequence (O95166 1-116): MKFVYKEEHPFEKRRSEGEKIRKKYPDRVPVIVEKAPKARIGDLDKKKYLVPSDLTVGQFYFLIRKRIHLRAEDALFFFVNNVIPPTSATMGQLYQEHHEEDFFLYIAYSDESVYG

Binder | fold enhancement of affinity over the unphosphorylated peptide [1] | fold enhancement of affinity over the unphosphorylated peptide [2] | fold enhancement of affinity over the unmodified peptide [1] | binding result [2]
SGS[pS]FEELDL (also called p-Ser272; source: synthetic peptide, bought: GenScript; passed over Superdex peptide) [TEX264 peptide (residues 269-278) with S272 phosphorylation (p-S272)] | 23 fold | 37 fold | – | –
SGEEFEELDL (peptide, UniProt Q9Y6I9 269-278, looked up, also called 2E-LIR; source: synthetic peptide, bought: GenScript; passed over Superdex peptide) [phosphomimetic TEX264^(S271, 272E) peptide (2SE-LIR)] | – | – | ~20 fold | binds
EGEEFEELDL (peptide, UniProt Q9Y6I9 269-278, looked up, also called 3E-LIR; source: synthetic peptide, bought: GenScript; passed over Superdex peptide) [phosphomimetic TEX264^(S269E, S271E, S272E) peptide (3SE-LIR)] | – | – | ~20 fold | binds
SGDDFEELDL (peptide, UniProt Q9Y6I9 269-278, looked up, also called 2D-LIR; source: synthetic peptide, bought: GenScript; passed over Superdex peptide) [phosphomimetic TEX264^(S271D, S272D) peptide (2SD-LIR)] | – | – | ~20 fold | binds
DGDDFEELDL (peptide, UniProt Q9Y6I9 269-278, looked up, also called 3D-LIR; source: synthetic peptide, bought: GenScript; passed over Superdex peptide) [phosphomimetic TEX264^(S269D, S271D, S272D) peptide (3SD-LIR)] | – | – | ~20 fold | binds
[pS]GASGSSFEELDL (source: synthetic peptide, bought: GenScript; passed over Superdex peptide) [TEX264 LIR peptide (residues 266-278) with S266 phosphorylation (p-S266)] | 6.5 fold | 1.8 fold | – | –
